In the RNAGym collection of RNA variant scans (doi:10.1093/nar/gkz1192) one finds self-cleavage data, which are given here for 167 variants.

The labels stand for the following.
B1: CPEB3 Ribozyme (parent)
chain: UAACAGGGGGCCACAGCAGAAGCGUUCACGUCGCAGCCCCUGUCAGAUUCUGGUGAAUCUGCGAAUUCUGCUGUAUAUCUC

The data set covers variants of B1. As to the kind of experiment: self-cleavage, relative activity (ratio to wild type); higher = more cleavage; in vitro, sequencing. In short, it runs like this:
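Libraries of CPEB3 self-cleaving ribozyme mutants came from rounds of error-prone PCR and carried barcodes, which DNA sequencing matched to variants. In vitro transcription used T7 RNA polymerase at 37°C for 5 hours, with a further 15 min in DNase I before EDTA stopped the reaction; the ribozymes cleaved during both steps. The RNA was reverse transcribed with template switching and sequenced on Illumina. Relative activity is the cleaved/total read fraction of a variant divided by that of the unmutated ribozyme, averaged over three batches with at least 5 reads.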
As to G10C C71A, the self-cleavage worked out at 0.12. Turning to G10U A15G, the self-cleavage worked out at 0.18. In the case of G10C U60A, the self-cleavage came to 0.12. In the case of G9U G36C, the self-cleavage came to 0.07.

For G9U G36A, the self-cleavage is 0.15. The value for G10A was 0.26. With G10C the figure was 0.25; with G10U, 0.23. G10A U25A: the self-cleavage is 0.26. Turning to G10A U25G, the self-cleavage worked out at 0.14. The value for G10A U25C was 0.23; that for G9U A18U was 0.2; that for G9U A18G was 0.19. With G9U A18C, the self-cleavage turned out to be 0.18. For G9U G55A, the self-cleavage was found to be 0.41. With G10U U60G, the self-cleavage is 0.31.

In the case of G10U U60C, the self-cleavage came to 0.38. In the case of G10A C38U, the self-cleavage came out at 0.08. The value for G10C U66C was 0.15; that for G10C U66A was 0.2; that for G10C U74G was 0.26.

For the variant G10C U74A, the self-cleavage was 0.26. Consider G9U G63A, for which the self-cleavage is 0.08.

Turning to G10A G53C, the self-cleavage worked out at 0.33. With G10A G53A, the self-cleavage amounted to 0.29. The value for G10A C34U was 0.05. Take G10A C11U: the self-cleavage is 0.5. For the variant G10U A21C, the self-cleavage was found to be 0.06. As for G10U A21G, the self-cleavage worked out at 0.08. G9U C37U: the self-cleavage was found to be 0.07.

Take G10C G16A: the self-cleavage worked out at 0.12. Turning to G9U A75U, the self-cleavage was 0.17. In the case of G9U A75G, the self-cleavage stood at 0.13.

In the case of G10U A65G, the self-cleavage was 0.19. Consider G9U U25C, for which the self-cleavage is 0.14. In the case of G10C A28C, the self-cleavage came to 0.16. Take G10C A28G: the self-cleavage was found to be 0.14.

As to G10C A35G, the self-cleavage was determined as 0.28. Turning to G9U A56C, the self-cleavage was 0.29. With G9U A56U, the self-cleavage was found to be 0.29. With G9U A56G the figure was 0.14; with G10U G33A, 0.23; with G10U G33U, 0.1.

For the variant G9U U26C, the self-cleavage was found to be 0.19. The value for G9U U26G was 0.09; that for G10U G53U was 0.24. In the case of G10A C40U, the self-cleavage worked out at 0.15. For the variant G10A C40A, the self-cleavage stood at 0.19.

For the variant G9U U72C, the self-cleavage turned out to be 0.26. In the case of G9U U72A, the self-cleavage was determined as 0.09. With G9U A64U, the self-cleavage came out at 0.06.

On to G9U A64G, for which the self-cleavage amounted to 0.15. Take G10C A64G: the self-cleavage was determined as 0.25. Consider G10C A64U, for which the self-cleavage was 0.15. With C11A A35G the figure was 0.46; with C11A A35U, 0.1. For G9U U49C, the self-cleavage came to 0.11. For G9U U49A, the self-cleavage turned out to be 0.41.

For the variant G10C G52A, the self-cleavage came to 0.2.

Turning to G9U U60C, the self-cleavage was 0.06. As to G9U U60A, the self-cleavage was determined as 0.15. G9U A35C: the self-cleavage worked out at 0.14.

For the variant G9U A35G, the self-cleavage worked out at 0.33. Consider G9U A35U, for which the self-cleavage came out at 0.14. On to G9U G52U, for which the self-cleavage worked out at 0.18. The value for G9U A45U was 0.04. Turning to G9U A45C, the self-cleavage amounted to 0.05. For G9U A45G, the self-cleavage came out at 0.11.

Regarding G10C G33A, the self-cleavage turned out to be 0.16. With G10U U78C the figure was 0.39; with G10U A77G, 0.35. Turning to G10U A77U, the self-cleavage was found to be 0.07. With G9U U58C, the self-cleavage stood at 0.14. The value for G10A G42U was 0.38; that for G10A G42C was 0.16; that for G10A U69G was 0.36.

In the case of G10A U69A, the self-cleavage was 0.11. Turning to G10A U69C, the self-cleavage came out at 0.2. Take G10A G33A: the self-cleavage was found to be 0.19. As for G10U C62U, the self-cleavage was determined as 0.13. With G10C U80C the figure was 0.31.

In the case of G10C U67A, the self-cleavage stood at 0.17. In the case of G10C U67C, the self-cleavage turned out to be 0.37. In the case of G10C C27U, the self-cleavage was 0.15. With G10A U80G, the self-cleavage is 0.25. For the variant G10A U80A, the self-cleavage worked out at 0.06. The value for G10A U80C was 0.25; that for G9U C12U was 0.2; that for G9U U54C was 0.1. As to G9U U54A, the self-cleavage is 0.08. Consider G10A C29U, for which the self-cleavage was 0.13. G10C U41C: the self-cleavage worked out at 0.1. The value for G10C U41A was 0.33; that for G9U G19U was 0.07; that for G10C A56G was 0.15. G10U G52U: the self-cleavage turned out to be 0.09. On to G10C A15U, for which the self-cleavage stood at 0.08. Turning to G10C A15G, the self-cleavage was found to be 0.08. For the variant G10A A45U, the self-cleavage came out at 0.19. Take G10A A45G: the self-cleavage came out at 0.22. The value for G9U U66G was 0.11; that for G9U U66C was 0.15. The value for G10A G55A was 0.36; that for G10A G55U was 0.07. For the variant G10U A20G, the self-cleavage was 0.36.

As for G9U A77U, the self-cleavage amounted to 0.16.

Consider G10A G46U, for which the self-cleavage was found to be 0.17.

On to G10U C32U, for which the self-cleavage is 0.21. On to G10C U51C, for which the self-cleavage is 0.22. With G10A U60A the figure was 0.14; with G10A U60C, 0.2. Consider G10A U60G, for which the self-cleavage turned out to be 0.06. In the case of G9U C38A, the self-cleavage was determined as 1.09. For the variant G9U G70A, the self-cleavage amounted to 0.1. As for G10U C50U, the self-cleavage is 0.17. The value for G10A C27G was 0.16. On to G10U A35G, for which the self-cleavage was 0.32. Regarding G10U A35U, the self-cleavage worked out at 0.05. For G10A C32A, the self-cleavage came out at 0.06. Consider G10A C32U, for which the self-cleavage was 0.19. The value for C11A A21G was 0.24; that for G10U A64G was 0.07; that for G10U A64U was 0.35. Turning to G10A A65U, the self-cleavage stood at 0.14.

On to G10A A65G, for which the self-cleavage came out at 0.12. With G10A A65C, the self-cleavage came to 0.09. With C11A A56G the figure was 0.34. On to C11A A56U, for which the self-cleavage worked out at 0.12.

As for G9U A28G, the self-cleavage worked out at 0.11.

G9U A28U: the self-cleavage is 0.13.

On to G10A G61C, for which the self-cleavage was found to be 0.09. Consider G10U A45C, for which the self-cleavage stood at 0.14.

Turning to G10C U72A, the self-cleavage turned out to be 0.14.

As for G10C A20U, the self-cleavage was found to be 0.42. Take G10C A20G: the self-cleavage was 0.19. In the case of G10U A57U, the self-cleavage came to 0.07. The value for G10U A57G was 0.23; that for G10U U69A was 0.18; that for G10U U69C was 0.07.

G10C U54C: the self-cleavage was found to be 0.39. As for G10C U54A, the self-cleavage came to 0.26.

On to G10A U58A, for which the self-cleavage is 0.24. For G10A U58C, the self-cleavage worked out at 0.18. Turning to G10C U58C, the self-cleavage stood at 0.19. In the case of G9U G24C, the self-cleavage turned out to be 0.11. Take G10U C38G: the self-cleavage was 0.17. For G10U U48A, the self-cleavage came to 0.35.

G10C A45G: the self-cleavage turned out to be 0.13.

G10C A45U: the self-cleavage is 0.16.

As to G10A A77U, the self-cleavage was found to be 0.04. For G10A A77G, the self-cleavage is 0.08. For the variant G9U U74C, the self-cleavage came to 0.32. On to G10A C17A, for which the self-cleavage turned out to be 0.23. For the variant G10A C17G, the self-cleavage is 0.3. Consider G10A C17U, for which the self-cleavage was 0.06. In the case of G9U A15C, the self-cleavage turned out to be 0.36. The value for G9U A15U was 0.32. With G9U A15G, the self-cleavage is 0.14.

In the case of G9U U69G, the self-cleavage came to 0.18. G9U U69A: the self-cleavage turned out to be 0.11. With G9U U69C, the self-cleavage is 0.11.

Consider C11A A18G, for which the self-cleavage stood at 0.28. The value for C11A A18U was 0.43; that for C11A A18C was 0.4. Turning to G10A U74G, the self-cleavage was determined as 0.14. With G10A U74C the figure was 0.25; with G10A U74A, 0.25.
